Results published in doi:10.1101/2024.04.16.588673 (bioRxiv, 2024).

T1: parathyroid hormone 1 receptor (PTH1R), C-tagged Citrine (human, UniProt Q03431 27-593)
T1 sequence: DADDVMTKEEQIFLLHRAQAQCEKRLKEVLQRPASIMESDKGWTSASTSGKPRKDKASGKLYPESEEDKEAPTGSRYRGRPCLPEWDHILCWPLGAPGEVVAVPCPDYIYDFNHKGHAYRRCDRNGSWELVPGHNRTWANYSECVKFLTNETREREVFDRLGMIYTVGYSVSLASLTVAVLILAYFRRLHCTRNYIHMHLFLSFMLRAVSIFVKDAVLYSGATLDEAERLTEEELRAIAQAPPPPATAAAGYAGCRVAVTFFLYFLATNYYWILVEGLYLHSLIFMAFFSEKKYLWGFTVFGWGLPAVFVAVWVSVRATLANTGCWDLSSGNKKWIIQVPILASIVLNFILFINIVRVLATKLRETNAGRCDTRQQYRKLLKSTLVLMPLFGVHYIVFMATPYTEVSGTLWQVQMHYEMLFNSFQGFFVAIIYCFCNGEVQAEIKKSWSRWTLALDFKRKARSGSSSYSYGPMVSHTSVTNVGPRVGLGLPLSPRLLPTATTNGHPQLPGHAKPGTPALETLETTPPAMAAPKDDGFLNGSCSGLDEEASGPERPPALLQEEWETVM


Biological target: T1, parathyroid hormone 1 receptor (PTH1R), …
Experiment: FRET or BRET

Binder	stoichiometry N
receptor activity-modifying protein 2 (RAMP2), C-tagged Cerulean (natural protein) QPLPTTGTPGSEGGTVKNYETAVQFCWNHYKDQMDPIEKDWCDWAMISRPYSTLRDCLEHFAELFDLGFPNPLAERIIFETHQIHFANCSLVQPTFSDPPEDVLLAMIIAPICLIPFLITLVVWRSKDSEAQA	~1 RAMP2 per PTH1R
receptor activity-modifying protein 3 (RAMP3), C-tagged Cerulean (natural protein) RAGGCNETGMLERLPLCGKAFADMMGKVDVWKWCNLSEFIVYYESFTNCTEMEANVVGCYWPNPLAQGFITGIHRQFFSNCTVDRVHLEDPPDEVLIPLIVIPVVLTVAMAGLVVWRSKRTDTLL	~2 RAMP3 per PTH1R
